We go through one substance from US6899879.

The assay concerns the target human CD40 antigen on the surface of human B cells (human) (UniProt P25942). The assay is described as follows: cell-based or functional assay.
Sequence of UniProt P25942 (P25942 21-277): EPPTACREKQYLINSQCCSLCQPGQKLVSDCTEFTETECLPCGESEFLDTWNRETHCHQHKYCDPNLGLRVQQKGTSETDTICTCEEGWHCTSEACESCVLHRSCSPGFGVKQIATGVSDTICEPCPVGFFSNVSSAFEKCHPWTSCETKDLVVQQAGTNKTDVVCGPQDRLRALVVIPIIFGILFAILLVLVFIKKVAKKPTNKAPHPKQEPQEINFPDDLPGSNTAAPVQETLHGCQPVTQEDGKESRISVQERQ

As for anti-CD40 monoclonal antibody 5D12, the 50% of maximal inhibition of human T-cell induced immunoglobulin production by human B cells was 30 ng/mL, the concentration giving complete inhibition of EL4B5-induced human B-cell proliferation was 10 ng/mL, the half-maximal inhibition of EL4B5-induced human B-cell proliferation was 1 ng/mL and the percentage of inhibition of immunoglobulin production by human B cells lay within 40 to 70%.
